Assay results reported in patent US7319140 (SCHERING, dated 2008).

Tests used:
[1] = target: T1, CD94/NKG2C receptor (disulfide-linked heterodimer) (human, UniProt Q13241 1-179; P26717 1-231); assay: summary of example XII
T1 construct: whole, on cells; Expressed in Ba/F3 transfectants; also called CD94/NKG2C heterodimer

KIR2DS2 = target: T2, KIR2DS2 (human, UniProt P43631 22-304); assay: co-immunoprecipitation from 125I-labelled Ba/F3 transfectants
T2 construct: whole, on cells; Expressed in Ba/F3 or Jurkat transfectants; also called NKAT5
T2 sequence (P43631 22-304): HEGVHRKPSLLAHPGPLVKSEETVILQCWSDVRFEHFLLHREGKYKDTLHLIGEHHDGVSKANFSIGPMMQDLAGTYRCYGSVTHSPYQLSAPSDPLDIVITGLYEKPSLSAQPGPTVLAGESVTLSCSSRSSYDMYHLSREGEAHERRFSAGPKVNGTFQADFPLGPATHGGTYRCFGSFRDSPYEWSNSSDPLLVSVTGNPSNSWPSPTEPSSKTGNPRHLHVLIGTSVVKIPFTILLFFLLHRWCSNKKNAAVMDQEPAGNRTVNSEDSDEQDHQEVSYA
Excerpt: Unlike CD94/NKG2C, KIR2DS2 molecules are expressed on the cell surface in the absence of DAP12, although they are unable to induce cellular activation (Bléry, et al. (1997) *J. Biol. Chem.* 272:8989-8996; Lanier, et al. (1998) *Nature* 391:703-707). KIR2DS2+ Ba/F3 cells were infected with retroviruses encoding either wild-type FLAG-DAP12 or the D-A transmembrane FLAG-DAP12 mutant receptor. Both KIR2DS2 and the mutant DAP12 protein were expressed on the cell surface. […] Like NKG2A and NKG2C, the KIR2DS2 protein has a counterpart, KIR2DL2, that lacks a charged amino acid in the transmembrane and contains an ITIM in its cytoplasmic domain. It has been previously reported that KIR2DL2 is unable to associate with DAP12 (Lanier, et al. (1998) *Nature* 391:703-707). Collectively, these findings indicate that the association of DAP12 with either KIR2DS2 or CD94/NKG2C complexes likely results from interactions involving the transmembrane domains of these proteins.

[2] = target: T3, myc epitope tagged Ly49H (Ly49H-myc) (mouse, UniProt Q60682 1-266); assay: co-immunoprecipitation from transfected Ba/F3 cells
T3 construct: whole, on cells; Expressed in Ba/F3 transfectants; also called mouse Ly49H
T3 sequence (looked up): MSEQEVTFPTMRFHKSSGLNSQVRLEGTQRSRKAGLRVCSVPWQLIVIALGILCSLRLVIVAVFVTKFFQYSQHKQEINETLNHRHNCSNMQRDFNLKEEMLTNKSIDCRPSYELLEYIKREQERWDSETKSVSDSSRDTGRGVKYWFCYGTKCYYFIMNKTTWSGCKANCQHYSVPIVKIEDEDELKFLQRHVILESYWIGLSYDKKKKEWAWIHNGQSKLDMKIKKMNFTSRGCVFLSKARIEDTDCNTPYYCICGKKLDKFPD
Excerpt: (§1) Transcripts of Ly49D and Ly49H are present in IL-2 activated NK cells (20). Ly49D is expressed on ~50% of NK cells (Mason, et al. (1996) *J. Exp. Med.* 184:2119), and is associated with a tyrosine phosphoprotein of 16 kD (Mason, et al. (1998) *J. Immunol.* 160:4148-4152). Murine NK cells, like human NK cells, transcribe mRNA for DAP12, a molecule which associates with the activating KIR2DS and mediates cellular activation (Lanier, et al. (1998) *Nature* 391:703). To examine if Ly49D or Ly49H associated with DAP12, Ba/F3 cells were stably transfected with an epitope-tagged mouse DAP12 (DAP12-FLAG). […] Ba/F3 or the Ba/F3-DAP12 transfectants were then infected with retroviruses encoding either Ly49D, a myc epitope tagged Ly49H (Ly49H-myc), or as a control Ly49A. Neither Ly49D nor Ly49H-myc was expressed at appreciable levels on the cell surface when transfected into Ba/F3 cells.
(§2) To confirm that Ly49D and Ly49H non-covalently associate with DAP12 at the cell surface, Ly49D/DAP12-FLAG or Ly49H-myc/DAP12-FLAG Ba/F3 transfectants were surface iodinated, lysed with digitonin, and immunoprecipitates were analyzed by SDS-PAGE.

Ly49D = target: T4, Ly49D (mouse, UniProt Q60651 1-263); assay: as above
T4 construct: whole, on cells; Expressed in Ba/F3 transfectants; also called mouse Ly49D
T4 sequence (looked up): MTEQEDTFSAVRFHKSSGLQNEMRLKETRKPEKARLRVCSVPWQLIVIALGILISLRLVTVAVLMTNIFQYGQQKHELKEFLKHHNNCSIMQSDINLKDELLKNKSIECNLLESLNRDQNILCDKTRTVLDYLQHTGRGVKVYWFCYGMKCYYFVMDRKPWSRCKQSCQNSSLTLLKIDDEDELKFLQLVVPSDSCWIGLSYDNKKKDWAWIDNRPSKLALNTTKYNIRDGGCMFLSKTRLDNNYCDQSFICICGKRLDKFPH
Excerpt: as §1, §2

T1 sequence (Q13241 whole entry, chain 1 of 2): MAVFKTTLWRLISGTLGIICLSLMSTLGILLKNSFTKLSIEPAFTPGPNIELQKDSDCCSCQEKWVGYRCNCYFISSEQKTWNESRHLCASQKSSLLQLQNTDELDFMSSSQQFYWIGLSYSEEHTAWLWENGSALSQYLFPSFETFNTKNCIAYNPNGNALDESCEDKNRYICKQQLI
T1 sequence (P26717 whole entry, chain 2 of 2): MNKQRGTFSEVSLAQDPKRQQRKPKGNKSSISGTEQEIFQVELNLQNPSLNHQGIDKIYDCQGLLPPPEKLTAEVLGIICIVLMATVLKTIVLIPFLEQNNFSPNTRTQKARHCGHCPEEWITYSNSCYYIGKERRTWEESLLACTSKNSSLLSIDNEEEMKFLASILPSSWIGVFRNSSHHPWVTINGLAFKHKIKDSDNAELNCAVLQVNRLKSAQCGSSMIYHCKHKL

B1: DAP12-FLAG (human DAP12 with a FLAG epitope tag at the N terminus) (receptor, not shown: small tags and cut ends)
chain: QAQSDCSCSTVSPGVLAGIVMGDLVLTVLIALAVYFLGRLVPRGRGAAEAATRKQRITETESPYQELQGQRSDVYSDLNTQRPYYK
notes: Made as CD8 leader, FLAG, then DAP12 without its own leader; Runs as a disulfide-bonded homodimer on the cell surface; also called FLAG-DAP12
**Q.** Does B1 bind [1]?
**A.** Result: binds

B2: D-A transmembrane FLAG-DAP12 mutant receptor (receptor, not shown: small tags and cut ends)
chain: QAQSDCSCSTVSPGVLAGIVMGALVLTVLIALAVYFLGRLVPRGRGAAEAATRKQRITETESPYQELQGQRSDVYSDLNTQRPYYK
notes: also called mutant DAP12 protein
**Q.** Does B2 bind (KIR2DS2)?
**A.** Result: no binding

B3: epitope-tagged mouse DAP12 (DAP12-FLAG) (receptor, not shown: small tags and cut ends)
chain: AQSDTFPRCDCSSVSPGVLAGIVLGDLVLTLLIALAVYSLGRLVSRGQGTAEGTRKQHIAETESPYQELQGQRPEVYSDLNTQRQYYR
notes: Limits of the construct are not described; also called mouse DAP12-FLAG; FLAG-tagged form of mouse DAP12
**Q.** Does B3 bind [2]?
**A.** Result: binds

**Q.** Does B3 bind (Ly49D)?
**A.** Result: binds
